B1: RHOBTB3 (parent)
chain: STTEGIQLAKELGATYLELHSLDD

Variants of: B1
Test: protein stability index of a GFP-peptide fusion (GPS, HEK-293T) (PSI 1-6); higher = more stable
Conditions: c terminus: a fixed tail appended
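Note: lentivirally expressed fusions sorted by FACS into six bins by GFP to DsRed ratio, PSI derived from sequencing read proportions per bin multiplied by bin number.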

Protein stability index, by site and new letter:
T2: W 1.58, S 3.71, Y 2.37, V 2.81
L12: C 3.96, A 5, D 5.62
A9: W 2.64, V 2.53, D 4.64, Y 3.12, M 1.74, N 4.06, F 2.28, P 4.49, R 3.01, C 3.08, G 4.34, H 4.38, Q 3.52, I 2.63, T 4.21, K 3.6, L 1.19, S 4.24
Q7: W 2.5, P 3.65, H 3.99, M 2.86, G 3.36, I 3.37, S 4.24, C 3.49, D 4.68, K 3.96, V 3.54, A 3.7, L 2.95, Y 3.52, T 3.68, N 3.24, E 3.71, R 2.19, F 3.37
E11: P 3.92, A 1.53, Y 2.88, V 2.87, M 3.19, H 4.34, I 2.39, L 2.19, F 2.56, Q 3.89, N 3.84, C 3.42, G 3.86, T 3.61, W 1.73, D 4.01, K 2.94
L8: I 4.41, Q 5.2, H 4.53, M 4.11, D 5.04, G 5.04, E 4.97, P 4.92, K 4.78, V 4.44, T 4.97, W 3.86, C 3.94, S 4.58, Y 4.97, F 4.24, A 4.29, R 4.41, N 4.57
E4: W 2.58, H 3.37, C 1.66, S 3.79, R 3.42, G 3.98, D 3.44, T 3.67, V 3.1, L 1.83, P 3.65, N 3.58, Q 2.71, I 2.35, M 2.27, A 3.66, K 4.24, Y 2.27, F 2.29
I6: T 1.68, Q 4.54, N 4.39, V 4.05, K 3.94, S 4.39, L 2.87, R 3.6, E 4.71, C 5.12, F 2.59, H 4.62, W 2.7, P 4.31, Y 3.22, G 4.9, M 3.01
G5: Q 3.94, C 3.02, P 4.09, A 3.23, W 1.56, E 3.31, T 4.16, H 3.26, F 2.25, I 1.92, S 3.56, N 4.27, K 3.73, D 2.49, M 2.15, L 3.64, R 3.89, V 3.98, Y 2.91
T3: Q 2.84, P 3.56, F 2.29, H 2.49, Y 2.83, E 4.19, C 2.22, S 4.02, R 3.03, V 3.19, K 3.42, A 2.94, L 2.37, N 2.9, W 1.84, I 2.73, D 3.97, G 4.01, M 2.31
K10: N 2.84, Q 3.57, F 1.38, S 3.13, P 4.33, A 2.73, E 4.35, V 2.06, H 3.15, G 1.71, W 1.5, R 2.99, T 1.84
